Publication PMC5805711
Like-named read-outs stand apart in the source and are kept apart here.

Legend:
[1] = target: T1, His68 (UniProt position 68, KESTLHLVLRL); conditions: Ubiquitin; form not further specified (literature value); cited from earlier work
[2] = target: T1, His68; assay: NMR; conditions: 23 °C; Not stated explicitly for Ub^WT; described as 'a similar pH titration' to that of pUb in citric acid-phosphate buffer; Free wild-type ubiquitin, folded

Ubiquitin (Ub^WT) (Homo sapiens (inferred; the article does not state the species of the ubiquitin))
pKa [1]: 5.5
pKa [2]: 5.7
